Measurements from PMC5056459, “Antagonistic roles of Drosophila Tctp and Brahma in chromatin remodelling and stabilizing repeated sequences” (Nature Communications, 2016).

Target: T1, GST-Brm 304-747 (Drosophila, UniProt P25439 304-747)
T1 construct: in pGEX5X-1; also called middle part of Brm protein; source: E. coli Rosetta2, extracted and dialysed
Assay: pull-down; GST-Brm fragments as baits, MBP-Tctp as prey, 5 micrograms each; PDB (20 mM Tris-HCl pH 7.5, 150 mM NaCl, 0.5 mM EDTA, 10% glycerol, 0.1% Triton X-100, 1 mM DTT) with 0.2% BSA, 2-3 h at 4 °C; western blot with anti-GST and anti-MBP; proteins extracted from E. coli and dialysed
Details: both partners purified

T1 sequence (P25439 304-747): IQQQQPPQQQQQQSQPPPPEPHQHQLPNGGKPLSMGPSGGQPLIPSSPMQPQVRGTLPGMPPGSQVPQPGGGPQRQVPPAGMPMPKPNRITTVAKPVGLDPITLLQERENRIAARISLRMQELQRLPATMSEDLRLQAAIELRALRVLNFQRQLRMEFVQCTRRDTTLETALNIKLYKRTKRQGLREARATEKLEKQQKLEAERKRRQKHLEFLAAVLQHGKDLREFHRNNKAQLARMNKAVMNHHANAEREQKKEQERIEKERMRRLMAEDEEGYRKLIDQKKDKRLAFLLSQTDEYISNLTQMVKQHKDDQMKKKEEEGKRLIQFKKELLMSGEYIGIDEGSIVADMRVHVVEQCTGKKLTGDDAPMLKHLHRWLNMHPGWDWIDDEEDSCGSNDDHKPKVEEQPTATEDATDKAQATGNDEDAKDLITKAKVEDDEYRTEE

binding result: binds
B1: MBP-Tctp (natural protein, Drosophila, UniProt Q9VGS2 1-172, looked up)
chain: MKIYKDIITGDEMFADTYKMKLVDDVIYEVYGKLITRQGDDIKLEGANASAEEADEGTDITSESGVDVVLNHRLTECFAFGDKKSYTLYLKDYMKKVLAKLEEKSPDQVDIFKTNMNKAMKDILGRFKELQFFTGESMDCDGMVALVEYREINGDSVPVLMFFKHGLEEEKC
notes: Drosophila Tctp in pMAL-c2; also called MBP-tagged Tctp; source: E. coli Rosetta2, extracted and dialysed
